Measured values from the nanobody polyreactivity screen of Harvey et al. (2022).

Test: yeast display, Sf9 membrane polyspecificity reagent, FACS + sequencing; frameworks hold sequencing errors
In short: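 Genes from sorted yeast were amplified by colony PCR, read by MiSeq 2 × 250 sequencing and filtered on CDR length. These cells carried a synthetic nanobody library in Saccharomyces cerevisiae BJ5465 and were sorted by FACS into low and high (top ~1%) gates on anti-HA and streptavidin fluorescence. Polyreactivity is labelled according to the gate of origin.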
With “QVHLVESAGGLVQAGGSLSLSCAASAITLYFNAMGWYRQAPGKEREWVAAISWSGDSTYYADSVKGRFTISRDNAKNTVYLQMNSLKPEDTAVYYCAADRYTYYHYAWYEYWGQGTQVTVSS” the “polyreactivity (PSR sort gate)” value was “low polyreactivity”.
In the case of “QVQLVESGGGLVQAGGSLRLSCAASGITFRRYAMGWYRQAPGKESELVAAITSSGGSTYYADSVKGRFTISRDNAKNTVYLLMISLKPEDTAVYYCAAAFFSQYYLYEYWGQGTQVTVSS”, the “polyreactivity (PSR sort gate)” value is reported as “high polyreactivity”.
For “QVQLVESGGGLVQAGGSLRLSCAASGLTFWANTMGWYRQAPGKERELVAAITWSGGSTYYADSVKGRFTISRDNAKNTFYLQMNSLKPEDNAVYYCAAEEFFSAGYSYYYWGQGTQVTVSS”, the “polyreactivity (PSR sort gate)” value was “low polyreactivity”.
For “QVQLVESGGGLVQAGGSLRLSCAASGRTFSYNAMGWYRQAPGKERELVAAIDWSGGRTYYADSVKGRFTISRDNAKNTVYLQMNSLKPEDTAVYYCNKAVRSSYSAWQYGMYYWGQGTQVTVSS”, the “polyreactivity (PSR sort gate)” value was “high polyreactivity”.
In the case of “QVQLVESGGGLVQAGGSLRLSCAASGRTFAGNAMGWYRPAPGTERELVADITRGGGSTYYADSVKGRFTISRDNAKNTVYLQMNSLKPEDTAVYYCAAATAFYYFISEYDYWGQGTQVTVSS”, the “polyreactivity (PSR sort gate)” value is reported as “high polyreactivity”.
For “QVQLVESGGRLVQAGGSLRLSSAPSGSIFFWYAMGWYRQAPGKERELVAAITQRTGSTYYADSVKGRFTISRDNAKNTVYLQMNSLKPEDTAVYYCAAKRLRRSFTGNYWGQGTQVTVSS”, the “polyreactivity (PSR sort gate)” value was “high polyreactivity”.
For “QVQLVESGGGLVQAGGSLRLSCAASGFTFPSYTMGWYRQAPGKERELVAAISRSDGTTYYADSVKGRFTISRDNAKNTVYLQMNSLKPEDTAVYYCNKAYKRYGYHYDYWGQGTQVTVSS”, the “polyreactivity (PSR sort gate)” value was “high polyreactivity”.
With “QVQLVESGGGLVQAGGSLRLSCAASGSTFRWNAMGWYRQAPGKERELVATITWGGGSTYYADSVKGRFTISRDNAKNTVYLQMNSLKPEDTAVYYCARRQRARYSYYQYNYWGQGTQVTVSS” the “polyreactivity (PSR sort gate)” value was “high polyreactivity”.
In the case of “QVQLVESGGGLVQAGGSLRISCDASGRTFYVYDRGWYRQAPGKERELVAVISSSGSTNYADSVKGRFTISRDNAKNTVYLQMNSLKPEDTAVYYCNRRRWYFFSLDYWGQGTQVTVSS”, the “polyreactivity (PSR sort gate)” value is reported as “high polyreactivity”.
For “QVQLVESGGGLVQAGGSLRLSCAASGLTFGDYAMGWYRQAPGKEREFVAAISSSTGRTYYADSVKGRFTISRDNAKNTVYLQMNSLKPEDTAVYYCAVRYIYPSHYGYDYWGQGTQVSVSS”, the “polyreactivity (PSR sort gate)” value was “low polyreactivity”.
In the case of “QVQLVESGGGLVQAGGSLRLSCAASGSILRYYAMGWYRQAPGKEREFVAAISWSGTSTYYADSVKGRFTISRDNAKNTVYLQMNSLKPEDTAVYYCAARTYYVPYYYWGQGTQVTVSS”, the “polyreactivity (PSR sort gate)” value is reported as “high polyreactivity”.
In the case of “QVQLVESGGGLVQAGGSLRLSCAASGLTFPQYAMGWYRQAPGKERELVAAISKTGGSTYYADSVKGRFTISRDNAKNTVYLQMNSLKPEDTAVYYCAAVESGDRGQRNNYWGQGTQVTVSS”, the “polyreactivity (PSR sort gate)” value is reported as “high polyreactivity”.
With “QLQLVESGGGLVQAGGSLRLSCAASGISFSSYTMGWYRQAHGKERELVAAITWRGGRTYYADSVKGRFKISRDNAKNTVFLQMHSLKTEDTSVFYCAARDVAGYSTRFYYWGQGTQVTVSS” the “polyreactivity (PSR sort gate)” value was “high polyreactivity”.
For “QVQLVESGGGLVQAGGSLRLSCAASGFTIYRYAMGWYRQAPGKERELVAAITSRGGSTYYADSVKGRFTISRDNAKNTVYLQMNSLKPEDTAVYYCAAAGYYPAYDYWGQGTQVTVSS”, the “polyreactivity (PSR sort gate)” value was “high polyreactivity”.
For “QVQLVESGGGLVQAGGSLRLSCAASGRTFALYAMGWYRQATGKERELVAAITWSGGSTYYADSVKGRFTISRDNAKNTVYLQMNSLKPEDTAVYYCAAQWPKSKYGYWGQGTQVTVSS”, the “polyreactivity (PSR sort gate)” value was “high polyreactivity”.
In the case of “QVHLVESGGGLVQAGGSLRLSCAASGSTIVRYGMGWYRQAPGKERELVAAITSTGDSTYYADSVKGRFTISRDNAKNTVYLQMNSLKPEDTAVYYCATQSSVLSWWYDYWGQGTEVTVSS”, the “polyreactivity (PSR sort gate)” value is reported as “low polyreactivity”.
With “QVQLVESGGGLVQAGGSLRLSCAASGITFWGYAMGWYRQAPGKEREFVARINWSGGRTYYAESVKGRFTISRDNAKNTVYLQMNSLKPEDTAVYYCAATSLIYCYRTYYYWGQGTQVTVSS” the “polyreactivity (PSR sort gate)” value was “high polyreactivity”.
In the case of “QVQLVESGGGLVQAGGSLRLSSAASGITFLTNAMGWYRQAPGKERELVAAISGRGTRTYYADSVKGRFTISRDNAKKTVFLQMNRLKPEDTAVYYCAAVRRPVHYPYDYWGQGNQVTVSS”, the “polyreactivity (PSR sort gate)” value is reported as “high polyreactivity”.
With “QDQLVESGGGLVQAGGSLRLSCAASVRTCNSYAMGWYRQAPGKERELVADITSSGGSTYYADSVKGRVTISRDNAKNTVYVQMNSLKPEDTAVYYCAADGYTRLPTYLRVTHRSLDYCGQGTQVTVSS” the “polyreactivity (PSR sort gate)” value was “low polyreactivity”.
For “QVQLVESGGGLVQAGGSLRLSCAASGYTFVGYAMGWYRQAPGKERELVASISTGDSTYYADSVKGRFTISRDNAKNTVYLQMNSLKPEDTAVYYCAADSWYFRGMDYWGQGTQVTVSS”, the “polyreactivity (PSR sort gate)” value was “low polyreactivity”.
With “QVQLVESGGGLVQAGGSLRLSCAASGRTLVRNVMGWYRQAPGKERELVAAISRSGGSTYYADSVKGRFTISRDNAKNTVYLQMNSLKPEDTAVYYCAAATKSNGAPIFDSWGQGTQVTVSS” the “polyreactivity (PSR sort gate)” value was “high polyreactivity”.
For “QVQLVESGGGLVQAGGSIRLSCAASGSIFVSNAMGWYRQAPGKERELVAAISGGGSTYYADSVKGRFTISRDNAKNTVYLQMNSLKPEDTAVYYCAKKGGHRTYGYDSWGQGTQVTVSS”, the “polyreactivity (PSR sort gate)” value was “low polyreactivity”.
In the case of “QVQLVESGGGLVQAGGSLRLSCAASGNTYPVYAMGWYRHASGQERELDATITSGGSTNYADSVKGRFTLSRDNAKTSVYYQMNSLSPEDTAVYYCARRAVYSKRRYDYWGQGTQVTVSS”, the “polyreactivity (PSR sort gate)” value is reported as “low polyreactivity”.
For “QVQLVESGGGLVQAGGSLRLICAASGSNFYVYAMGWYRQAPGKERELVAAISDSGSRTYYADSVKGRFTISRDNAKNTVYLKKNSLKPEDTAVYYCAALTRRTGYTYKEYYWGQGTQVTVSS”, the “polyreactivity (PSR sort gate)” value was “high polyreactivity”.
For “QVQLVESGGGLVQAGGSLRLSCAASGGIFSYYAMGWYRQAPGKEREFVAAIDWGGGSTYYADSVKGRFTISRDNAKKTVYLQMNSLKPEDTAVYYCAAEIYPIGWDDYDYWGQGTQVTVSS”, the “polyreactivity (PSR sort gate)” value was “low polyreactivity”.
For “QVQLVESGGGLVQAGGSLRLSCGGSGNSFNSYALGWYRQAPGKEREFVAAISGSGSSTYYADSVMGRFTISRDNAKNTVYLQINSLKPEDTAVYYCAVPYYKRYIWSNRDYWGQGTQVTVSS”, the “polyreactivity (PSR sort gate)” value was “high polyreactivity”.
In the case of “QVQLVESGGGLVQAGGSLRLSCAASGRIFGINAMGWYRQAPGKERALVAAISRSGSRTYYADSVKGRFTISRDNAKNTVYLQMNSLKPEDTAVYYCAAQKRVYDSVRSTDRYDYWGQGTQVTVSS”, the “polyreactivity (PSR sort gate)” value is reported as “high polyreactivity”.
With “QVQLVESGGGLVQAGGSLRLSCAASGSIFSPYAMGWYRQAPGKERELDASISSGTSTNYADSVKGRFTISRDNAKNTVYLQMNSLKPEDTAVYYCNAGADSTVRNYVTSFSQYDYWGQGTQVTVSS” the “polyreactivity (PSR sort gate)” value was “low polyreactivity”.
In the case of “QVQLVESGGGLVQAGGSLRLSCAASGSTFWYNTMGWYRQAPGKERELVAAISWSGGSTYADSVKGRFTISRDNAKNTVYLQMNSLKPEDTAVYYCNADDYYRYDYWGLGTQVTVSS”, the “polyreactivity (PSR sort gate)” value is reported as “low polyreactivity”.
With “QVQLVESGGGLVQAGGSLRLSCAASGSTFYRNVMGWYRQAPGKERELVAAISSGGSTYYADSVIGRFTISRDNAKNTVYLQLNSLKPEDTAVYYCARRLTREYDYWGQGTQVTVSS” the “polyreactivity (PSR sort gate)” value was “low polyreactivity”.
